Assay in all cases: cell-based or functional assay
In test [1] the target is T1, TAO2(h) (human, UniProt Q9UL54 1-314, limits assumed).
T1 sequence (looked up): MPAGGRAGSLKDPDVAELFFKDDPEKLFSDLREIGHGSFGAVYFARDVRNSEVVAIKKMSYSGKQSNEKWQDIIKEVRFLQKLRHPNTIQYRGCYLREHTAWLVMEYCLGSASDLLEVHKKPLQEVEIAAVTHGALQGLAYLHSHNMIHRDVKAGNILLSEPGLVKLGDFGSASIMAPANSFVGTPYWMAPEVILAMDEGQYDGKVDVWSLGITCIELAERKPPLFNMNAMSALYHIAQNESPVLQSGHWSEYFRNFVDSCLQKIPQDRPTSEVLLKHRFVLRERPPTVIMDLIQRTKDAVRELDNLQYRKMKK

The target of test [2] is ROCK-II(h) (human, UniProt O75116 11-552, limits assumed).
Chain of ROCK-II(h) (O75116 11-552 limits assumed): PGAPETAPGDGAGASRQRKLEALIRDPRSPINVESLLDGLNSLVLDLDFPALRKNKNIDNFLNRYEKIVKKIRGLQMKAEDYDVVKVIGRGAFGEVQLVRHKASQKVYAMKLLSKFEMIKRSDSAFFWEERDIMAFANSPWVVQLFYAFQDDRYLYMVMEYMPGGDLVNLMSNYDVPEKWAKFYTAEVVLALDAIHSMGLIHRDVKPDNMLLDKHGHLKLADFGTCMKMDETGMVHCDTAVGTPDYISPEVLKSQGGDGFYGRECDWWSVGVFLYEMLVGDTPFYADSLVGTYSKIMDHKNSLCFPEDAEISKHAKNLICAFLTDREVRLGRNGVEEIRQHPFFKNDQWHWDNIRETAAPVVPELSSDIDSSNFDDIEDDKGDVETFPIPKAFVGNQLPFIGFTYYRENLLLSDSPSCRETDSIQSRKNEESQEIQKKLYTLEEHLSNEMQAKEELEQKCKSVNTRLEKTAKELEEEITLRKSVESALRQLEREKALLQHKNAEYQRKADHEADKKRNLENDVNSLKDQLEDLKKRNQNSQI
Test [3] concerns the target Src(1-530)(h) (human, UniProt P12931 1-530).
Test [4] addresses PKBα(h) (human, UniProt P31749 1-480, limits assumed).
The target in test [5] is Rsk2(h) (human, UniProt P51812 1-740).
Chain of Rsk2(h) (P51812 whole entry): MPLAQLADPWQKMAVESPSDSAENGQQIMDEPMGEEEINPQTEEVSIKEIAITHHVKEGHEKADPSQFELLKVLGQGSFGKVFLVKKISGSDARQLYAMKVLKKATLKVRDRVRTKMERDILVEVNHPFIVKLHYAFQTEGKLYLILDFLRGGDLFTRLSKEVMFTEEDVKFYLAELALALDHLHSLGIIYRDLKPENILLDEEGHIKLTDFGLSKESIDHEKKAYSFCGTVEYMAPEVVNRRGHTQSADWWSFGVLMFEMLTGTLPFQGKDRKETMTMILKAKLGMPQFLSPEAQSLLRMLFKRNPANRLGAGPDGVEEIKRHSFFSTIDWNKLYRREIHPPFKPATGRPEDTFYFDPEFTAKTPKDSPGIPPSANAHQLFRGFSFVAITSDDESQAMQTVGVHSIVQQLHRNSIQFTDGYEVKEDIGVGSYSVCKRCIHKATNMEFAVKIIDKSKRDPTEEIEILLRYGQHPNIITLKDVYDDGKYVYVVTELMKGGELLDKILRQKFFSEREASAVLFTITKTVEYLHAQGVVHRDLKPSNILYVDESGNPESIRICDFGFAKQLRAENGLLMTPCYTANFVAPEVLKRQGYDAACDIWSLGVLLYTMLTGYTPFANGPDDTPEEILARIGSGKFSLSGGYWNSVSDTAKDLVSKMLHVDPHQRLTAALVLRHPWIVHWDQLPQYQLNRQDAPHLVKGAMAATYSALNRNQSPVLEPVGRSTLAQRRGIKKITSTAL
Test [6] concerns the target JNK1α1(h) (human, UniProt P45983-2 1-384).
Test [7] has as its target HIPK1(h) (human, UniProt Q86Z02 158-555, limits assumed).
Test [8] deals with T2, PKCζ(h) (human, UniProt Q05513 1-592).
T2 sequence (looked up): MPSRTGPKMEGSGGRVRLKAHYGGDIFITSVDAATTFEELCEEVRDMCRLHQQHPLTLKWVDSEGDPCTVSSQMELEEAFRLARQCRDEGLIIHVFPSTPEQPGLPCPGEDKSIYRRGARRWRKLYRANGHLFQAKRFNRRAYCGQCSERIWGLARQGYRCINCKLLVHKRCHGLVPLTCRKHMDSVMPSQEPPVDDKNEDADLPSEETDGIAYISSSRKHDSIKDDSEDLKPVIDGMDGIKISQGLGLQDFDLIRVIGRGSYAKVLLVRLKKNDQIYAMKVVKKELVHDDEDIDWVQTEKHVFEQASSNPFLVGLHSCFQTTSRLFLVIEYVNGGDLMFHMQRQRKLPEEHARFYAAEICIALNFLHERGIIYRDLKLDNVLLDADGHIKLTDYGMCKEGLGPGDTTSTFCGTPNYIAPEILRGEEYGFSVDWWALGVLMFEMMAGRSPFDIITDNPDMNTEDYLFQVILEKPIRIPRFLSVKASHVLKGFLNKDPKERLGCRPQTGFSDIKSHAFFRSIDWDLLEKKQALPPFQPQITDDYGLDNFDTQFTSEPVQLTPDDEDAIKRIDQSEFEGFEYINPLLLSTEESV

In test [9] the target is T3, PKCι(h) (human, UniProt P41743 1-596).
T3 sequence (looked up): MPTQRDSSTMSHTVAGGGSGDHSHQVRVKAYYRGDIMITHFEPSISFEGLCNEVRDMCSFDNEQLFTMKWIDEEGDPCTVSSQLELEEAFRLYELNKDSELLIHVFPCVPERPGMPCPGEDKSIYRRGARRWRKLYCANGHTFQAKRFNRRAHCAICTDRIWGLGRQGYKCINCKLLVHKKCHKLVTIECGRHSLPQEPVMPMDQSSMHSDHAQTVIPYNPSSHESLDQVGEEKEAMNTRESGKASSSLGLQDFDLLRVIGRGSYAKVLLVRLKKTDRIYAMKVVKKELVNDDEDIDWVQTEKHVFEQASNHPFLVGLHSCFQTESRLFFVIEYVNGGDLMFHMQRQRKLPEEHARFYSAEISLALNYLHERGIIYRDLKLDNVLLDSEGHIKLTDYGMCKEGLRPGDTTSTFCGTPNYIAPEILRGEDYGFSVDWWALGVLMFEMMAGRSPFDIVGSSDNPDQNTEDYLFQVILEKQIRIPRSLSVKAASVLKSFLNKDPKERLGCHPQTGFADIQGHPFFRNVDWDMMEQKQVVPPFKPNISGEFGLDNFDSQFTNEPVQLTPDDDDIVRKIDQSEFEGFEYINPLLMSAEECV

In test [10] the target is MRCKα(h) (human, UniProt Q5VT25 1-473, limits assumed).
Chain of MRCKα(h) (Q5VT25 1-473 limits assumed): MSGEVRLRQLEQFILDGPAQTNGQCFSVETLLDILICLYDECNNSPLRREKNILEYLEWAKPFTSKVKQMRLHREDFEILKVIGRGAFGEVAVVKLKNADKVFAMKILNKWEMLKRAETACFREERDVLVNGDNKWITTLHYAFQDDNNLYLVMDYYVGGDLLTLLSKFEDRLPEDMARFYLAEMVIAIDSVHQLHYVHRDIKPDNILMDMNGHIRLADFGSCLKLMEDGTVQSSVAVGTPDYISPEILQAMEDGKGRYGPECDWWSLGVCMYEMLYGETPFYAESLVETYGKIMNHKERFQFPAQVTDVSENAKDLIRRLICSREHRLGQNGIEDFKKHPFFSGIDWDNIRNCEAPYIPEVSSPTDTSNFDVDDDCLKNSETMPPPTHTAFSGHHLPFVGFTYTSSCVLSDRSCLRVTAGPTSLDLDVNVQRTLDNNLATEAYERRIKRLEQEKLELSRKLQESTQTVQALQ
The target in test [11] is T4, SGK(h) (human, UniProt O00141 60-431, limits assumed).
T4 sequence (looked up): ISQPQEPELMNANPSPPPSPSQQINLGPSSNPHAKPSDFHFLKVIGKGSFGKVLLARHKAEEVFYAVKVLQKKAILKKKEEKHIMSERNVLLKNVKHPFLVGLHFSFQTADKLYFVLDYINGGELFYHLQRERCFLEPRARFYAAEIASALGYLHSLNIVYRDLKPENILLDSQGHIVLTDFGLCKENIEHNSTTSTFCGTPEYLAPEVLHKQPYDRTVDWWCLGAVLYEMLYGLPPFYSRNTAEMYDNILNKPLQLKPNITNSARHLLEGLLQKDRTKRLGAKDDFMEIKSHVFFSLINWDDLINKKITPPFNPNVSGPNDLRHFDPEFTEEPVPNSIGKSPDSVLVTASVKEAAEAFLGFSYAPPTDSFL

Test [12] deals with T5, TAK1(h) (human, UniProt O43318 1-303, limits assumed).
T5 sequence (looked up): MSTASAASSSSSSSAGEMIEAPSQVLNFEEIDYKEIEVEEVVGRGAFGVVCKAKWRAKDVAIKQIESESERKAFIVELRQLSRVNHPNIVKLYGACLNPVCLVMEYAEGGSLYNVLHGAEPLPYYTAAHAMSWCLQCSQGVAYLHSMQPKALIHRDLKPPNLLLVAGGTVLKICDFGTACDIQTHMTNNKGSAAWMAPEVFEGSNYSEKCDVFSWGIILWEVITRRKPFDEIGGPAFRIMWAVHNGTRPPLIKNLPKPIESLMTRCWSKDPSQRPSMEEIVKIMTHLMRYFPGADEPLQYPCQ

Chain of HIPK1(h) (Q86Z02 158-555 limits assumed): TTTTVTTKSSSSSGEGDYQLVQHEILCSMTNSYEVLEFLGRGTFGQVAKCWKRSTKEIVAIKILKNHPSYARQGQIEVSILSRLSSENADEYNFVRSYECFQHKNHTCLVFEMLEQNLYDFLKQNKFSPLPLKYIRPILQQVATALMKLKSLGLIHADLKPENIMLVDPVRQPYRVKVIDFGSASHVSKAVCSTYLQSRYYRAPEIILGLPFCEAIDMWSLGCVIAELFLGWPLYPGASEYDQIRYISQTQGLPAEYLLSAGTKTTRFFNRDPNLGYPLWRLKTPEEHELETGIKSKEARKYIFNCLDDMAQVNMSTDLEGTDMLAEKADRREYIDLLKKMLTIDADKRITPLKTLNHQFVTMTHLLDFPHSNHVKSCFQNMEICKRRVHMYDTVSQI
Chain of PKBα(h) (P31749 whole entry): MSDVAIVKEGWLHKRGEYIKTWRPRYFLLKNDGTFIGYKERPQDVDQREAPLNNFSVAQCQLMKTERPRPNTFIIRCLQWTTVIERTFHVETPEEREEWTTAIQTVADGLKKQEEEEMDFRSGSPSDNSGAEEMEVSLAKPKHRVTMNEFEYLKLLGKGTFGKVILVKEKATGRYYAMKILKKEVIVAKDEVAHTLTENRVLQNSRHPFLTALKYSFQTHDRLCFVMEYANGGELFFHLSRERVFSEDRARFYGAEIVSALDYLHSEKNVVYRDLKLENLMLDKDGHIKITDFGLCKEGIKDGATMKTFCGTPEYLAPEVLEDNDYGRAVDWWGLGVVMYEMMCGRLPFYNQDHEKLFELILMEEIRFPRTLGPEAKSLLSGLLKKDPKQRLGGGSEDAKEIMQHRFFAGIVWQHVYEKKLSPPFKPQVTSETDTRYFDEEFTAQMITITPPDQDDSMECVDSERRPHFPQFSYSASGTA
Chain of JNK1α1(h) (P45983 other isoform, or with tags, fused parts or gaps limits assumed): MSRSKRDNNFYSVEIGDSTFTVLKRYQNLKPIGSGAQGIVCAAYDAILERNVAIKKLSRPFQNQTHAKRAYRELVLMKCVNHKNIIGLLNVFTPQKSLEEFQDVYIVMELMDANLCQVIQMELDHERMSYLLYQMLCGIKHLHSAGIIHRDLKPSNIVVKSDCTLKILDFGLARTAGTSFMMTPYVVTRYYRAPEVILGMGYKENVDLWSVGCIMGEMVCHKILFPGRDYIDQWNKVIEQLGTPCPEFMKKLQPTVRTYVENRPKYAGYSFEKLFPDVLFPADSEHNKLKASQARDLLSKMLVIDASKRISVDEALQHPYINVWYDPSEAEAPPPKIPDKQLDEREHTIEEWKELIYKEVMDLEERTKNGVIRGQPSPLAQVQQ

Consider FAKLAARLYRKALARQLGVAA [MMI-0300], for which the “% activity, 100 µM” value in test [1] stood at 70%; in test [2], 74%; in test [3], 23%; in [4], 57%; in [5] it was 51%; in [6], 97%. In addition, the “% activity, 100 µM” value in test [7] amounted to 74%; in test [8], 81%; in test [9], 68%; in test [10] it was 104%; in test [11], 48%; in test [12] it was 122%.
KAFAKLAARLYRKALARQLGVAA [MMI-0400]: the “% activity, 100 µM” value in test [1] worked out at 74%; in [2], 77%; in [3], 19%; in test [4], 67%; in [5] it was 38%; in test [6], 98%. Further, the “% activity, 100 µM” value in [7] was 91%; in [8] it was 75%; in test [9], 46%; in test [10], 97%; in [11], 54%; in test [12] it was 177%.

The values are drawn from patent publication US20140072613A1 (published 2014).
